Results reported in US20070196354A1, “Method of treating diabetes by inhibiting degradation of at least one of crebl1, atf6, and hnf-4 alpha by htra” (priority 2003, published 2007).

Assays:
HNF-4α = target: T1, HNF-4α (Homo sapiens, UniProt P41235); test: Intracellular protease assay, co-expression with HNF-4α in HEK293T cells; type: cell-based; settings: 48 hours
T1 construct: expressed in transfected cells; host or cells: HEK293T
T1 sequence (P41235 10-474): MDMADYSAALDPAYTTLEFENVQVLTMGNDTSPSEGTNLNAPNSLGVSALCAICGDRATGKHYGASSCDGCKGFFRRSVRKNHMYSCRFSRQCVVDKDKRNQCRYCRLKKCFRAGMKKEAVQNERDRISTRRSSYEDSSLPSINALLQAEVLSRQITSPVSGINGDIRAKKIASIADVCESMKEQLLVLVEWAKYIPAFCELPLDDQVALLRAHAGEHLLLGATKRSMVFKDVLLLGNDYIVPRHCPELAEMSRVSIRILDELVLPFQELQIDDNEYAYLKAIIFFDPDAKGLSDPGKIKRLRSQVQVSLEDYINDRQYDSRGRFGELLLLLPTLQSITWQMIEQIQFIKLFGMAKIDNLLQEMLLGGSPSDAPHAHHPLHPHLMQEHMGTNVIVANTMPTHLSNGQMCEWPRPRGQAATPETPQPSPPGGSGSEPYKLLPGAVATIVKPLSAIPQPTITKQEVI
Experimental: (§1) HEK293T cells were cultured to 1.5×10^5 cells/6 cm Dish. Next day, the expression plasmid of HNF-4α was transfected into HEK293T cells together with the expression plasmid of various types of HtrA2 using FuGene 6 (Roche). Each of the expression plasmid of various HtrA2 at 1 μg/Dish was added in combination with HNF-4α expression plasmid at 1 μg/Dish. Forty eight hours later, the cells in which the various types of HtrA2 were co-expressed with HNF-4α were added with 200 μl of lysis buffer B and an equivalent volume of 2×SDS sample buffer (containing 0.1% β-mercaptoethanol), and then subjected to sonication followed by boiling to use as a test sample.
Expression of HNF-4α and the degradation of HNF-4α were detected by western blotting using 10 μl of the test sample thus obtained. Anti-FLAG antibody (Sigma) was used as a primary antibody for detection, and horseradish peroxidase (HRP) labeled anti-mouse IgG antibody (Cell Signaling) was used as a secondary antibody. Detection was carried out using ECL Western Blotting Detection System.

ATF6 = target: T2, ATF6 (Homo sapiens, UniProt P18850); test: Intracellular protease assay, co-expression with ATF6 in HEK293T cells; type: cell-based; settings: 48 hours
T2 construct: expressed in transfected cells; host or cells: HEK293T
T2 sequence (P18850 1-670): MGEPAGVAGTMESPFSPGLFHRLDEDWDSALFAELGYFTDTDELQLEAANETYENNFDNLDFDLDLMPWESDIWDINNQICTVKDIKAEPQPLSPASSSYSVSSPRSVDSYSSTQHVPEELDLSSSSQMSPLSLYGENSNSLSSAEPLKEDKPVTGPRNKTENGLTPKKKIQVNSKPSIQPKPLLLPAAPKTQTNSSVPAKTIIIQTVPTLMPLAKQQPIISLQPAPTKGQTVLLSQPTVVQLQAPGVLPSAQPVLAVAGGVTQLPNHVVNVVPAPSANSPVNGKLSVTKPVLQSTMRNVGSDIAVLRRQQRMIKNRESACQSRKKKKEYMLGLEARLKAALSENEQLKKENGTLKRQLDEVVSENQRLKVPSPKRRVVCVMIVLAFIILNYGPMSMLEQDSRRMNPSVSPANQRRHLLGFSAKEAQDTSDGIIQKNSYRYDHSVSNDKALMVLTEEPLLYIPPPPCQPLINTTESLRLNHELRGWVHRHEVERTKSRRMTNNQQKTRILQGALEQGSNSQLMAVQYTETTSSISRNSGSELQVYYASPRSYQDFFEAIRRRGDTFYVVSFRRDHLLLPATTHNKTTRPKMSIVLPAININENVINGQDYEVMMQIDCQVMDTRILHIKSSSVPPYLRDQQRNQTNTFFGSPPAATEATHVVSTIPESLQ
Experimental: as §1, with “to 1.5×10^5 cells/10 cm Dish.” for “to 1.5×10^5 cells/6 cm Dish.”, “plasmid of CREBL1 or ATF6 was transfected” for “plasmid of HNF-4α was transfected”, “combination with CREBL1 expression plasmid or ATF6 expression plasmid” for “combination with HNF-4α expression plasmid”, “co-expressed with CREBL1 or ATF6 were added” for “co-expressed with HNF-4α were added”
(§2) Expression of CREBL1 and ATF6 and the degradation of these proteins were detected by western blotting using 10 μl of the test sample thus obtained. Anti-c-Myc (9E10) antibody was used as a primary antibody for detection, and horseradish peroxidase (HRP) conjugated anti-mouse IgG antibody (Cell Signaling) was used as a secondary antibody. Detection was carried out using ECL Western Blotting Detection System.

casein = test: Casein zymography and protease assay with casein sodium; type: biochemical; settings: HtrA2 types expressed in a cultured cell
Experimental: Determination of the activity of mature HtrA2 and mature HtrA2 (S306A) was carried out with casein zymography and with a protease assay with casein sodium. Casein zymography was carried out according to the protocol (Invitrogen). More concretely, mature HtrA2 and mature HtrA2 (S306A) were mixed under non-reductive condition with equivalent volume of 2×SDS sample buffer, left to stand at room temperature for 10 min, followed by separation with 4-16% zymogram (Blue casein) gel (Zymogram Gel, Invitrogen). After completion of electrophoresis, they were renatured with 2.5% Triton X-100, and then subjected to a degradation reaction of casein in the developing buffer at 37= C. for overnight.
Meanwhile, a protease assay using casein sodium as an substrate was carried out in such that mature HtrA2 or mature HtrA2 (S306A) was mixed with casein sodium in a reaction buffer (150 mM NaCl, 50 mM Tris-HCl (pH 7.5)) so as to the concentration of the former might become 200 μg/ml and the concentration of the latter might become 400 μg/ml, and incubated at 37° C. for reactions. A portion of the reaction solution was sampled at three hours and overnight after initiation of the reaction, mixed with equivalent volume of 2×SDS sample buffer followed by boiling, and then subjected to SDS-PAGE. After that, the degradation of casein sodium was detected by Coomassie Brilliant Blue (CBB) staining.
The enzyme activity of the various types of HtrA2 each of which was expressed in a cultured cell was determined by the protease assay using casein sodium as a substrate (see Example 2).

CREBL1 = target: T3, CREBL1 (Homo sapiens, UniProt Q99941); test: Intracellular protease assay, co-expression with CREBL1 in HEK293T cells; type: cell-based; settings: 48 hours
T3 construct: expressed in transfected cells; host or cells: HEK293T
T3 sequence (Q99941 1-703): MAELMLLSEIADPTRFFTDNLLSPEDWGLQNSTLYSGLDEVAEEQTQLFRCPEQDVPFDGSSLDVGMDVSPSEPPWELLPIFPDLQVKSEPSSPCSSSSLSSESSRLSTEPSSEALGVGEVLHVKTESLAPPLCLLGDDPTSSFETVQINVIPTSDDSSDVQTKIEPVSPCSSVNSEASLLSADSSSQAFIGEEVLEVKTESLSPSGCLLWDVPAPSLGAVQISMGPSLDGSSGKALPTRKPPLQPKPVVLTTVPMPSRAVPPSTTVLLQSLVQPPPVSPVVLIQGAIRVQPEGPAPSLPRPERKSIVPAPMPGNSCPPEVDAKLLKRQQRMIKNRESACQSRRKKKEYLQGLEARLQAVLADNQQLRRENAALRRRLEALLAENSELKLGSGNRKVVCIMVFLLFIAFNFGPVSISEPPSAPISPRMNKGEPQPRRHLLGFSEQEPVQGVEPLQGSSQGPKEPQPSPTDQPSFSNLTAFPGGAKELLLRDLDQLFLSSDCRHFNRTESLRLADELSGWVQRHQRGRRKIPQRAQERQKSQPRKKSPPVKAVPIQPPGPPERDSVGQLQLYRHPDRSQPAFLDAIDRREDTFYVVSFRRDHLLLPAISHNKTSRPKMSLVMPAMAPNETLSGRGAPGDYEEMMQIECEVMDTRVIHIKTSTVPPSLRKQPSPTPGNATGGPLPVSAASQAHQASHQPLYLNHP
Experimental: as §1, with “to 1.5×10^5 cells/10 cm Dish.” for “to 1.5×10^5 cells/6 cm Dish.”, “plasmid of CREBL1 or ATF6 was transfected” for “plasmid of HNF-4α was transfected”, “combination with CREBL1 expression plasmid or ATF6 expression plasmid” for “combination with HNF-4α expression plasmid”, “co-expressed with CREBL1 or ATF6 were added” for “co-expressed with HNF-4α were added”
as §2

B1: mature HtrA2 (S306A, GVPS): SEQ ID NO: 14; mature HtrA2 (S306A) with N-terminal alanine substituted with glycine (protein)
chain: MGVPSPPPASPRSQYNFIADVVEKTAPAVVYIEILDRHPFLGREVPISNGSGFVVAADGLIVTNAHVVADRRRVRVRLLSGDTYEAVVTAVDPVADIATLRIQTKEPLPTLPLGRSADVRQGEFVVAMGSPFALQNTITSGIVSSAQRPARDLGLPQTNVEYIQTDAAIDFGNAGGPLVNLDGEVIGVNTMKVTAGISFAIPSDRLREFLHRGEKKNSSSGISGSQRRYIGVMMLTLSPSILAELQLREPSFPDVQHGVLIHKVILGSPAHRAGLRPGDVILAIGEQMVQNAEDVYEAVRTQSQLAVQIRRGRETLTLYVTPEVTE
modifications: Polypeptide consisting of the same amino acid sequence of SEQ ID NO6 wherein the 2nd amino acid residue is substituted by Gly; mature HtrA2(S306A, GVPS)
notes: mature HtrA2 (S306A) with N-terminal alanine substituted with glycine
- degradation of HNF-4α in cells (band by western blotting) (HNF-4α): the reduction of the band of HNF-4α was not observed
- degradation of ATF6 in cells (band by western blotting) (ATF6): the reduction of the band of ATF6 was not observed
- protease activity using casein sodium as a substrate (casein): inactive type without exhibiting protease activity
- degradation of CREBL1 in cells (band by western blotting) (CREBL1): the reduction of the band of CREBL1 was not observed
